Entries after “also recorded” stand apart in the source; their conditions may differ. Primed or numbered codes have the meaning given here. Ends that are not written are not given here. Dansyl′ = dansyl group
Legend:
porcine skin [1] = test: Skin permeability test of skin permeable peptide derivative (Franz glass cell, fluorescence); format: in vitro ADME
Description: A dansyl group was linked at the C-terminus of each peptide having any one amino acid sequence of SEQ ID NOs. 1 to 10 which were selected in Example 1 so as to synthesize a derivative thereof, and it was intended to examine skin permeability thereof. In detail, each of the peptides was chemically synthesized, and then a dansyl group was added at the C-terminus of each peptide to synthesize a derivative thereof. As a control group, a peptide composed of the amino acid sequence of “[…] NO. 21)” which was prepared by adding a dansyl group at the C-terminus was used. […] Then, each derivative was added at the same concentration to the top of the cell, followed by incubation for 16 hours. After completion of the incubation, the amount of each derivative in the receiver at the bottom was measured using a victor fluorescence meter (340/520) to compare permeation degree (Table 2),

porcine skin [2] = test: Skin retention test of skin permeable peptide derivative (fluorescence); format: binding; details: for Fluorescent intensity (340/520), amount of peptide derivative remaining in porcine skin: 10 minutes incubation with skin, washed ten times; for Level of peptide derivative remaining in the skin (in words): compared to control group / among the 10 peptides
Description: To examine skin binding affinity of the derivatives synthesized in Example 3, the porcine skin was reacted with each of the derivatives, and the amount of the peptide dissolved in the surface was measured. In detail, the porcine skin was cut and put in a 1.5 ml tube, and 500 μl of TBS (1% BSA) was added thereto. […] After incubation, washing was performed using TBS (1% BSA) at 12,000 RPM for 1 minute ten times, and the porcine skin in which the reaction was completed was transferred to a 24-well plate. The amount of the peptide remaining on the surface was measured using a victor fluorescence meter (340/520) and compared (Table 4).

porcine skin [3] = test: Skin retention test of phage including skin permeable peptide (anti-M13 antibody-HRP, absorbance); format: binding; details: compared to control group / among the 10 peptides
Excerpt: Skin permeation mainly occurs by the mechanism of a diffusion of a substance dissolved in the components of the skin from the outermost layer to the innermost layers. Through this mechanism, an active ingredient can be effectively delivered throughout the skin. The skin surface is composed of corneocytes and intercellular materials. […] In this case, the product first binds to the skin, and then diffuses into the inner layer. Therefore, binding affinity of the selected phages to the skin was measured to examine the superiority of the peptides.
To measure the amount of the phage binding to the porcine skin, anti-M13 antibody-HRP conjugate was used. […] The porcine skin thus cut was put in a 1.5 ml tube, and 500 μl of TBS (1% BSA) was added thereto. […] Thereafter, they were washed using 1% BSA-containing TBS solution at 12,000 RPM for 1 minute 10 times. Subsequently, 500 μl of TBS solution containing anti-M13 antibody-HRP (Horseradish peroxidase) conjugate-containing 1% BSA was added, followed by incubation for 5 minutes. TBS solution containing 1% BSA was added to the culture, followed by washing at 12,000 RPM for 1 minute 10 times. The residual buffer was completely removed, and TMB solution (Tetramethylbenzidine solution, Amersham) was further added. […] Then, absorbance (450 nm) was measured to determine binding affinity between phage-skin.

| Substance | Fluorescence intensity (340/520), amount of porcine skin-permeating peptide derivative (porcine skin [1]) | Skin permeability of peptide derivative (in words) (porcine skin [1]) | Fluorescent intensity (340/520), amount of peptide derivative remaining in porcine skin (porcine skin [2]) | Level of peptide derivative remaining in the skin (in words) (porcine skin [2]) | Skin binding affinity / skin retention of phage (in words) (porcine skin [3]) |
| --- | --- | --- | --- | --- | --- |
| S3-8 peptide derivative: peptide MVRDHPGLSGWT (SEQ ID NO. 5) with a dansyl group added at the C-terminus (MVRDHPGLSGWT-{Dansyl′}) | 22000 | relatively excellent skin permeability | 100000 | relatively high level | – |
| S3-3 peptide derivative: peptide GGSIAASELEYY (SEQ ID NO. 3) with a dansyl group added at the C-terminus (GGSIAASELEYY-{Dansyl′}) | 19000 | relatively excellent skin permeability | 47000 | – | – |
| S3-7 peptide derivative: peptide ELKQVVISDINH (SEQ ID NO. 4) with a dansyl group added at the C-terminus (ELKQVVISDINH-{Dansyl′}) | 25000 | relatively excellent skin permeability | 98000 | relatively high level | – |
| S4-9 peptide derivative: peptide QIEKHVYFNASQ (SEQ ID NO. 9) with a dansyl group added at the C-terminus (QIEKHVYFNASQ-{Dansyl′}) | 16000 | relatively excellent skin permeability | 56000 | – | – |
| S3-2 peptide derivative: peptide NGSLNTHLAPIL (SEQ ID NO. 2) with a dansyl group added at the C-terminus (NGSLNTHLAPIL-{Dansyl′}) | 70000 | – | 260000 | relatively high level; also recorded: highest level | highest skin binding affinity |
| S3-9 peptide derivative: peptide TSGISINKLPHT (SEQ ID NO. 6) with a dansyl group added at the C-terminus (TSGISINKLPHT-{Dansyl′}) | 18000 | relatively excellent skin permeability | 47000 | – | – |
| S4-7 peptide derivative: peptide DMKWTLKEWMTH (SEQ ID NO. 8) with a dansyl group added at the C-terminus (DMKWTLKEWMTH-{Dansyl′}) | 8600 | – | 37600 | – | – |
| S4-10 peptide derivative: peptide TNIPSLSGILMK (SEQ ID NO. 10) with a dansyl group added at the C-terminus (TNIPSLSGILMK-{Dansyl′}) | 9000 | – | 25000 | – | – |
| S3-1 peptide derivative: peptide NQTDHLFSTFIS (SEQ ID NO. 1) with a dansyl group added at the C-terminus (NQTDHLFSTFIS-{Dansyl′}) | 42000 | relatively excellent skin permeability | 143000 | relatively high level | – |
| S4-4 peptide derivative: peptide IFAALDYNLGRH (SEQ ID NO. 7) with a dansyl group added at the C-terminus (IFAALDYNLGRH-{Dansyl′}) | 4400 | – | 13200 | – | – |

— US9687560B2, “Skin-permeating peptide” (LG Household & Health Care Ltd., priority 2012, dated 2017)
